The experiment addresses T1, Tumor-associated calcium signal transducer 2 (UniProt P09758 27-323, limits assumed).
T1 sequence (looked up): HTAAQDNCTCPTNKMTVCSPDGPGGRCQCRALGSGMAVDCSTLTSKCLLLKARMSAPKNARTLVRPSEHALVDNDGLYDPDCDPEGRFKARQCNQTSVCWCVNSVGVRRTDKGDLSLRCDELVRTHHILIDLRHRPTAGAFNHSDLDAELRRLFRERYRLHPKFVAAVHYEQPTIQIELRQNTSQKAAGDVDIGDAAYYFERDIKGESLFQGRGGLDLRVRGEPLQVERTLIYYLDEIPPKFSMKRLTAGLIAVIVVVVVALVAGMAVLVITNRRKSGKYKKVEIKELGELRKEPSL
The experiment is described as follows: cell-based or functional assay.

B1: FDA018-LE22 (antibody, human IgG1, kappa, V domains shown)
VH: QVQLQQSGSELKKPGASVKVSCKASGYTFTNYGMNWVKQAPGQGLKWMGWINTYTGEPTYTDDFKGRFAFSLDTSVSTAYLQISSLKADDTAVYFCARGGFGSSYWYFDVWGQGSLVTVSS
VL: DIQLTQSPSSLSASVGDRVSITCKASQDVSIAVAWYQQKPGKAPKLLIYSASYRYTGVPDRFSGSGSGTDFTLTISSLQPEDFAVYYCQQHYITPLTFGAGTKVEIKR
modifications: linker-drug LE22 coupled to cysteine sulfhydryl groups after reduction of the interchain disulfide bonds; DAR 4.00 for the whole antibody; sites not stated
For B1, the “IC50 (nM), in vitro killing activity, BXPC3 Cell” value (“IC50 (nM) … BXPC3 Cell” for short) was determined as 1.69 nM and the “IC50 (nM), in vitro killing activity, NCI-N87 Cell” value (from here on “IC50 (nM) … NCI-N87 Cell”) came to 3.25 nM.

B2: FDA018-LE19 (antibody, human IgG1, kappa, V domains shown)
VH: QVQLQQSGSELKKPGASVKVSCKASGYTFTNYGMNWVKQAPGQGLKWMGWINTYTGEPTYTDDFKGRFAFSLDTSVSTAYLQISSLKADDTAVYFCARGGFGSSYWYFDVWGQGSLVTVSS
VL: DIQLTQSPSSLSASVGDRVSITCKASQDVSIAVAWYQQKPGKAPKLLIYSASYRYTGVPDRFSGSGSGTDFTLTISSLQPEDFAVYYCQQHYITPLTFGAGTKVEIKR
modifications: linker-drug LE19 coupled to cysteine sulfhydryl groups after reduction of the interchain disulfide bonds; DAR 4.13 for the whole antibody; sites not stated
For the molecule B2, the “IC50 (nM), in vitro killing activity, MDA-MB-468 Cell” value (shortened to “IC50 (nM) … MDA-MB-468 Cell”) is 1.03 nM.

B3: FDA018-LE13 (antibody, human IgG1, kappa, V domains shown)
VH: QVQLQQSGSELKKPGASVKVSCKASGYTFTNYGMNWVKQAPGQGLKWMGWINTYTGEPTYTDDFKGRFAFSLDTSVSTAYLQISSLKADDTAVYFCARGGFGSSYWYFDVWGQGSLVTVSS
VL: DIQLTQSPSSLSASVGDRVSITCKASQDVSIAVAWYQQKPGKAPKLLIYSASYRYTGVPDRFSGSGSGTDFTLTISSLQPEDFAVYYCQQHYITPLTFGAGTKVEIKR
modifications: linker-drug LE13 coupled to cysteine sulfhydryl groups after reduction of the interchain disulfide bonds; DAR 4.10 for the whole antibody; sites not stated
Take B3: the “IC50 (nM) … BXPC3 Cell” value was 1.23 nM; the “IC50 (nM) … MDA-MB-468 Cell” value turned out to be 2 nM; the “IC50 (nM) … NCI-N87 Cell” value worked out at 2.34 nM.

B4: FDA018-GGFG-Dxd (antibody, human IgG1, kappa, V domains shown)
VH: QVQLQQSGSELKKPGASVKVSCKASGYTFTNYGMNWVKQAPGQGLKWMGWINTYTGEPTYTDDFKGRFAFSLDTSVSTAYLQISSLKADDTAVYFCARGGFGSSYWYFDVWGQGSLVTVSS
VL: DIQLTQSPSSLSASVGDRVSITCKASQDVSIAVAWYQQKPGKAPKLLIYSASYRYTGVPDRFSGSGSGTDFTLTISSLQPEDFAVYYCQQHYITPLTFGAGTKVEIKR
modifications: linker-drug GGFG-Dxd coupled to cysteine sulfhydryl groups after reduction of the interchain disulfide bonds; DAR 4.03 for the whole antibody; sites not stated
On to B4, for which the “IC50 (nM) … BXPC3 Cell” value was 0.61 nM; the “IC50 (nM) … MDA-MB-468 Cell” value is 1.2 nM; the “IC50 (nM) … NCI-N87 Cell” value came out at 1.1 nM.

B5: FDA018-LE21 (antibody, human IgG1, kappa, V domains shown)
VH: QVQLQQSGSELKKPGASVKVSCKASGYTFTNYGMNWVKQAPGQGLKWMGWINTYTGEPTYTDDFKGRFAFSLDTSVSTAYLQISSLKADDTAVYFCARGGFGSSYWYFDVWGQGSLVTVSS
VL: DIQLTQSPSSLSASVGDRVSITCKASQDVSIAVAWYQQKPGKAPKLLIYSASYRYTGVPDRFSGSGSGTDFTLTISSLQPEDFAVYYCQQHYITPLTFGAGTKVEIKR
modifications: linker-drug LE21 coupled to cysteine sulfhydryl groups after reduction of the interchain disulfide bonds; DAR 4.05 for the whole antibody; sites not stated
Turning to B5, the “IC50 (nM) … BXPC3 Cell” value is 1.23 nM and the “IC50 (nM) … NCI-N87 Cell” value was found to be 1.23 nM.

B6: FDA018-LE14 (antibody, human IgG1, kappa, V domains shown)
VH: QVQLQQSGSELKKPGASVKVSCKASGYTFTNYGMNWVKQAPGQGLKWMGWINTYTGEPTYTDDFKGRFAFSLDTSVSTAYLQISSLKADDTAVYFCARGGFGSSYWYFDVWGQGSLVTVSS
VL: DIQLTQSPSSLSASVGDRVSITCKASQDVSIAVAWYQQKPGKAPKLLIYSASYRYTGVPDRFSGSGSGTDFTLTISSLQPEDFAVYYCQQHYITPLTFGAGTKVEIKR
modifications: linker-drug LE14 coupled to cysteine sulfhydryl groups after reduction of the interchain disulfide bonds; DAR 4.00 for the whole antibody; sites not stated
With B6, the “IC50 (nM) … BXPC3 Cell” value is 0.5 nM; the “IC50 (nM) … MDA-MB-468 Cell” value was 0.8 nM; the “IC50 (nM) … NCI-N87 Cell” value stood at 1.08 nM.

B7: FDA018-LE18 (antibody, human IgG1, kappa, V domains shown)
VH: QVQLQQSGSELKKPGASVKVSCKASGYTFTNYGMNWVKQAPGQGLKWMGWINTYTGEPTYTDDFKGRFAFSLDTSVSTAYLQISSLKADDTAVYFCARGGFGSSYWYFDVWGQGSLVTVSS
VL: DIQLTQSPSSLSASVGDRVSITCKASQDVSIAVAWYQQKPGKAPKLLIYSASYRYTGVPDRFSGSGSGTDFTLTISSLQPEDFAVYYCQQHYITPLTFGAGTKVEIKR
modifications: linker-drug LE18 coupled to cysteine sulfhydryl groups after reduction of the interchain disulfide bonds; DAR 3.96 for the whole antibody; sites not stated
Take B7: the “IC50 (nM) … MDA-MB-468 Cell” value amounted to 0.86 nM.

B8: FDA018-LS13 (antibody, human IgG1, kappa, V domains shown)
VH: QVQLQQSGSELKKPGASVKVSCKASGYTFTNYGMNWVKQAPGQGLKWMGWINTYTGEPTYTDDFKGRFAFSLDTSVSTAYLQISSLKADDTAVYFCARGGFGSSYWYFDVWGQGSLVTVSS
VL: DIQLTQSPSSLSASVGDRVSITCKASQDVSIAVAWYQQKPGKAPKLLIYSASYRYTGVPDRFSGSGSGTDFTLTISSLQPEDFAVYYCQQHYITPLTFGAGTKVEIKR
modifications: linker-drug LS13 (SN-38 payload) coupled to cysteine sulfhydryl groups after reduction of the interchain disulfide bonds; DAR 3.97 for the whole antibody; sites not stated
Turning to B8, the “IC50 (nM) … BXPC3 Cell” value is 61.3 nM and the “IC50 (nM) … MDA-MB-468 Cell” value is 67.4 nM.
